Ten molecules from patent US20230159934, “INSULIN RECEPTOR APTAMER AND PHARMACEUTICAL COMPOSITION FOR TREATING DIABETES COMPRISING THE SAME” (APTAMER SCIENCES INC., published 2023) can be followed below.

Holding throughout (conditions): chain copies: 2
The target of data set [1] is T1, Insulin receptor on differentiated 3T3-L1 adipocytes (UniProt P15208;P15208 P15208:28-748,P15208:753-1372). The data set can be described thus: cell_activity; lipolysis (glycerol release) inhibition in 3T3-L1 adipocytes; insulin 2.07 nM. The procedure:
To identify the effect of the chemically optimized A48m (A48m combi 2 to 5) on lipolysis inhibition as insulin receptor aptamers, an amount of glycerol released in a lipolysis process was measured by using completely differentiated 3T3-L1 adipocytes.
Particularly, for serum deficiency, the completely differentiated 3T3-L1 adipocytes were treated with DMEM with no FBS for 3 hours and treated with a Krebs-Ringer HEPES buffer solution for 1 hour to induce lipolysis caused by deficiency of glucose. The adipocytes were treated respectively with insulin or the A48m combi 3 aptamer in concentrations of 0.93 nM, 2.59 nM, 7.26 nM, 20.34 nM, 56.94 nM, 159.44 nM, 446.43 nM, 1250 nM, and 3500 nM for 4 hours, and then a buffer used to treat the cells was collected. 20 μl of the collected buffer was added to a 96-well plate and 200 μl of a free glycerol reagent (Sigma F6428) was added thereto, followed by reaction at room temperature for 30 minutes. Then, concentration-dependent color development of glycerol released from the cells was measured by measuring absorbance at 540 nm.

The target of data set [2] is T1, Insulin receptor on differentiated …. The data set can be described thus: cell_activity; glucose uptake in differentiated 3T3-L1 adipocytes; insulin 9.6 nM. The procedure: For serum deficiency, the completely differentiated 3T3-L1 adipocytes were treated with DMEM with no FBS for 3 hours and treated with a Krebs-Ringer HEPES buffer solution for 1 hour. Subsequently, the adipocytes were treated respectively with insulin or the A48m combi 3 aptamer in concentrations of 1.6 nM, 8 nM, 40 nM, 200 nM, and 1000 nM for a given time and then treated with 2-deoxy[14C]glucose (0.1 μCi/ml) for 10 minutes. The resultant was washed three times with PBS supplemented with 20 mM glucose and the cells were dissolved using a solution including 0.5 N NaOH and 1% SDS. An amount of 2-Deoxy-D-glucose absorbed into the cells was observed using a liquid scintillation counter.

Data set [3] deals with T2, Insulin receptor (hIR) expressed on Rat-1/hIR cells (Homo sapiens, UniProt P06213;P06213 P06213:28-758,P06213:763-1382). The data set can be described thus: cell_activity; IR phosphorylation, 200 nM, Rat-1/hIR; Table 5 gives 0.83. The procedure:
(§1) To identify the insulin receptor phosphorylation activity of the chemical variant samples of A48m prepared in Example 2-1, an experiment was performed as follows. Particularly, Rat-1/hIR cells were seeded on a 12-well plates at a density of 10⁵ cells per well and cultured overnight in a high glucose Dulbecco's modified Eagle's medium (DMEM) supplemented with 10% fetal bovine serum (FBS). The cells untreated with the aptamer samples were incubated in the DMEM not including FBS for 3 hours, washed three times with 1×PBS, and incubated in a Krebs-Ringer HEPES buffer [25 mM HEPES (pH 7.4), 120 mM NaCl, 5 mM KCl, 1.2 mM MgSO₄, 1.3 mM CaCl₂, and 1.3 mM KH₂PO₄] for 1 hour. The aptamer samples, which were the chemical variants of A48m prepared in Example 2-1, were heated at 95° C. for 5 minutes and cooled at room temperature such that a three-dimensional structure of each aptamer was reconstructed. The aptamers were dissolved in the Krebs-Ringer HEPES buffer for preparation.
(§2) The aptamer samples were added to each well of the 12-well plate and incubated for 1 hour. After 1 hour, the plate was washed three times with 1×PBS and the cells were isolated from the plate and lysed with a lysis buffer. The cell lysates were centrifuged at 4° C. at 14,000 rpm for 15 minutes to isolate proteins. […] Intensities of bands formed on the membrane were quantified via comparison with A48m.

The target of data set [4] is T2, Insulin receptor (hIR) expressed on …. Kind of data set: cell_activity; IR phosphorylation, 200 nM, Rat-1/hIR. How it is done:
as §1
The aptamer samples were added to each well of the 12-well plate and incubated for 1 hour. After 1 hour, the plate was washed three times with 1×PBS and the cells were isolated from the plate and lysed with a lysis buffer. The cell lysates were centrifuged at 4° C. at 14,000 rpm for 15 minutes to isolate proteins. The isolated samples were heated at 100° C. for 5 minutes with a 5× sample buffer and slowly cooled at room temperature to prepare western blot samples. The prepared samples were subjected to electrophoresis on 4%-12% SDS-PAGE for 1 hour and 30 minutes and transferred to a nitrocellulose membrane for 1 hour and 30 minutes. Then, the membrane was blocked at room temperature for 40 minutes in a blocking buffer solution (1×PBST, 3% skim milk) and incubated for 1 hour at room temperature with a primary antibody [anti-phosphor-IR (10C3), Santa Cruz Biotechnology or anti-β-actin (D6A8), Cell Signaling Technology] diluted in a blocking buffer at 1:500 or 1:1000. The membrane was washed three times with 1×PBS and incubated for 1 hour at room temperature with a secondary binding antibody diluted in the blocking buffer at 1:20000, and washed three times with 1×PBST. An ECL solution was sprayed onto the membrane, followed by incubation at room temperature for 1 minute and exposure to x-rays. Intensities of bands formed on the membrane were quantified via comparison with A48m.

The target is the same in data set [5]. The data set can be described thus: cell_activity; IR phosphorylation reference, 200 nM, Rat-1/hIR. How it is done:
as §1, §2

Data set [6] shares this target. The data set can be described thus: cell_activity; IR phosphorylation, 200 nM, Rat-1/hIR; Table 5 gives 0.77. How it is done:
as §1, §2

The target is the same in data set [7]. Kind of data set: cell_activity; IR phosphorylation, 200 nM, Rat-1/hIR; Table 5 gives 0.9. How it is done:
as §1, §2

For data set [8] the target is unchanged. The data set can be described thus: cell_activity; IR phosphorylation, 200 nM, Rat-1/hIR; Table 5 gives 0.95. The procedure:
as §1, §2

As a reminder, the IC50 is the concentration that gives 50% inhibition. Read a low IC50 as greater potency in that assay. Usually EC50 stands for the midpoint of the concentration-response curve. Higher therefore signals weaker potency.

T2 sequence (P06213 28-758, chain 1 of 2): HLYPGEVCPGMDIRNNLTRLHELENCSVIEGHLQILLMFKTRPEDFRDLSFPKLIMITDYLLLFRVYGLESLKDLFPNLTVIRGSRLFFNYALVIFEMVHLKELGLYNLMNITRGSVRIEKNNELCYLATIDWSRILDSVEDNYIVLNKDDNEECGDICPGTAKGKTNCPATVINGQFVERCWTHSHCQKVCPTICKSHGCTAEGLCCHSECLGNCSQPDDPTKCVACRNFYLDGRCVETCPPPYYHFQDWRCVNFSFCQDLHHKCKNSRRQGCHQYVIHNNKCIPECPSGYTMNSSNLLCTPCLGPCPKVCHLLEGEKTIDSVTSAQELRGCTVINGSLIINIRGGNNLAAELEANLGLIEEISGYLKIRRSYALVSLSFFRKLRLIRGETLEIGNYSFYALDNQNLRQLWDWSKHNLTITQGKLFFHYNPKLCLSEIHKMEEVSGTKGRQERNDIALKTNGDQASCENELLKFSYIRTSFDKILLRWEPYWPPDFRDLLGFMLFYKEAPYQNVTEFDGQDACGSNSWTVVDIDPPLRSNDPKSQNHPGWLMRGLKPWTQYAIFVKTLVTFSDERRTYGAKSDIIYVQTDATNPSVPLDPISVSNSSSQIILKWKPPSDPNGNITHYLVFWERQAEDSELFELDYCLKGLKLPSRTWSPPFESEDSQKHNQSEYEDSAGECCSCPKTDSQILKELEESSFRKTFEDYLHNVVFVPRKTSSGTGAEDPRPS
T2 sequence (P06213 763-1382, chain 2 of 2): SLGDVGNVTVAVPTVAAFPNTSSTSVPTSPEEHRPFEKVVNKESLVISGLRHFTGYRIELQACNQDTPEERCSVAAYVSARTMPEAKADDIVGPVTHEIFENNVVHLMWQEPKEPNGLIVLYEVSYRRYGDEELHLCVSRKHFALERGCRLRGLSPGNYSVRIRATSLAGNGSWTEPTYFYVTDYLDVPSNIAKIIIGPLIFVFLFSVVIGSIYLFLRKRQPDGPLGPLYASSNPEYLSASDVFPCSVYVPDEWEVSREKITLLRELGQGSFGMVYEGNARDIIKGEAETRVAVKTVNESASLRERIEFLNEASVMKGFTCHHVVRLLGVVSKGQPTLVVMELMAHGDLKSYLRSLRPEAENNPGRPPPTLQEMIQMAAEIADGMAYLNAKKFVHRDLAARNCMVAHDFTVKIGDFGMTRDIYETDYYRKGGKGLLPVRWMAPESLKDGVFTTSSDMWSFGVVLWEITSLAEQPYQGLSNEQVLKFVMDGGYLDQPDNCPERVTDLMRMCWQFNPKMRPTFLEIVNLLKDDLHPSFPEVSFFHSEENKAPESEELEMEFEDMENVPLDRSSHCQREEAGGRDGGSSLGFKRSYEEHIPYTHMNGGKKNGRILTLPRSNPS
T1 sequence (P15208 28-748, chain 1 of 2): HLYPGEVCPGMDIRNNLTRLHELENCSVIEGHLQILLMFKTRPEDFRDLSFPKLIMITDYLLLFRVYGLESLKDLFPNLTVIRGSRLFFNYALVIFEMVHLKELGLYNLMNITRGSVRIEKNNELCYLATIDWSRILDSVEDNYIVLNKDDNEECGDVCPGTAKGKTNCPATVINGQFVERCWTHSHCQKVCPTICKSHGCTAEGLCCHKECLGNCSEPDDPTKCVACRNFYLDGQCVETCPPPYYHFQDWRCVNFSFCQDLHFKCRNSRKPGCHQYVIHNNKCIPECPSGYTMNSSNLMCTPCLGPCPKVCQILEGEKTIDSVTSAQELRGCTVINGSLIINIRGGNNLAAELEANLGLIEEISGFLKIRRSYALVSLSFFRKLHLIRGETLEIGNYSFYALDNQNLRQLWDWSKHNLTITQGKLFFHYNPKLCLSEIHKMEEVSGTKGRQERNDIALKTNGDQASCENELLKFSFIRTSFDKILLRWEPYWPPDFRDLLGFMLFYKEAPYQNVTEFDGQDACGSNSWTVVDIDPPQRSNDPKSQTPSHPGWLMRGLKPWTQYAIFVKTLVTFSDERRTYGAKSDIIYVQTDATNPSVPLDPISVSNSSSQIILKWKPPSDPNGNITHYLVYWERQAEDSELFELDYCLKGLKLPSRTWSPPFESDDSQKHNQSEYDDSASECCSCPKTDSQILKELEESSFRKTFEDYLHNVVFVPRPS
T1 sequence (P15208 753-1372, chain 2 of 2): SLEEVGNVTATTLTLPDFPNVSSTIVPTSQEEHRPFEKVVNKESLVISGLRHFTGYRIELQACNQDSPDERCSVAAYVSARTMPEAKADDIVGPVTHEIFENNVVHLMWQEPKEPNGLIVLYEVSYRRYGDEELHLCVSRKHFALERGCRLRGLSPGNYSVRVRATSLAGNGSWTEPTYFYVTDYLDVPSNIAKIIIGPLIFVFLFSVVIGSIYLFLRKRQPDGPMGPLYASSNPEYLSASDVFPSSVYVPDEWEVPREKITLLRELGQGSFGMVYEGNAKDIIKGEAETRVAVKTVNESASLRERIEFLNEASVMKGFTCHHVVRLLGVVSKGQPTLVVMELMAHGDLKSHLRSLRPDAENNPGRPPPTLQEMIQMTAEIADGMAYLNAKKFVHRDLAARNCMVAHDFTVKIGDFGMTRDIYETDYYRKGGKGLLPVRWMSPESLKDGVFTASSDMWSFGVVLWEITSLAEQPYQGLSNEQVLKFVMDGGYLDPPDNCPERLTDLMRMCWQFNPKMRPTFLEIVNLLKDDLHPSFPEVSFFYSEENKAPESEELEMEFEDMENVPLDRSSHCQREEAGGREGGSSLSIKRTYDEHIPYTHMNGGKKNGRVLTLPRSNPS

B1: A48m combi 3 (ssDNA)
DNA: CCUGGTGTTTAGACGACCTATAGGTTAGG
modifications: CmeCmeUmeGGPGZPLPAmeGAmeCfGAmeCfCmePAmePAGGmePPAmeGmeGme-idT; me = 2'-OMe, f = 2'-F, P = naphthyl-dU, Z = benzyl-dU, L = C3 linker, 3' idT [2'-OMe at 1,2,3,11,13,16,18,20,24,27,28,29; 2'-F at 14,17; naphthyl-dU at 6,9,10,19,21,25,26; benzyl-dU at 8; C3 linker (left out) between 9 and 10; 3' idT (left out) after 29]
Turning to B1, the midpoint of inhibition in data set [1], the IC50, lay at 11 nM. Besides, the 50% effective concentration (EC50) in data set [2] was 16.5 nM.
Regarding CGCCTGGTGTTCTAGACGACCTATAGGTTAGGC (ssDNA, P = naphthyl-dU; benzyl-dU at position 10) [A48m P10Z], the activity in data set [3] was 2.7 fold of A48m.
As to CGCCTGGTGTTCTAGACGACCTATAGGTTAGGC (ssDNA, P = naphthyl-dU; 2'-OMe at position 2) [A48m G2 2'-OMe], the activity in data set [4] was 1.28 fold of A48m.
As to CGCCTGGTGTTCTAGACGACCTATAGGTTAGGC (ssDNA, P (n) = naphthyl-dU) [A48m (A48 seq 1-19)], the activity in data set [5] is 1 fold of A48m.
Take CGCCTGGTGTTCTAGACGACCTATAGGTTAGGC (ssDNA, P = naphthyl-dU; benzyl-dU at position 29) [A48m P29Z]: the activity in data set [6] is 0.9 fold of A48m.
For the molecule CGCCTGGTGTTCTAGACGACCTATAGGTTAGGC (ssDNA, P = naphthyl-dU; C3 linker at position 12) [A48m C12 C3-linker], in data set [4], the activity is 1.7 fold of A48m.
Regarding CGCCTGGTGTTCTAGACGACCTATAGGTTAGGC (ssDNA, P = naphthyl-dU; benzyl-dU at position 13) [A48m P13Z], the activity in data set [7] was 1 fold of A48m.
As for CGCCTGGTGTTCTAGACGACCTATAGGTTAGGC (ssDNA, P = naphthyl-dU; C3 linker at position 18) [A48m G18 C3-linker], in data set [4], the activity was 1.16 fold of A48m.
On the same count and under the same terms, to CGCCTGGTGTTCTAGACGACCTATAGGTTAGGC (ssDNA, P = naphthyl-dU; 2'-F at position 27) [A48m G27 2'-F] belongs 1.11 fold of A48m.
Take CGCCTGGTGTTCTAGACGACCTATAGGTTAGGC (ssDNA, P = naphthyl-dU; benzyl-dU at position 28) [A48m P28Z]: the activity in data set [8] is 1.09 fold of A48m.
